This data set has as its system MS2 coat protein. The experiment in a line: apparent KD of MS2 coat protein; designed switch direction (-1 OFF switch, 1 ON switch): -1; higher = weaker reporter binding. The essentials: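 Apparent KD, taken as the median over clusters for each design, was obtained by curve-fitting normalised cluster fluorescence. Designed RNA switches had been transcribed on Illumina chips by stalled E. coli RNA polymerase and titrated with SNAP-549-labelled MS2 coat protein, doubling from 0.7 or 1.5 nM to 3 µM.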

The mark [1] stands for this setting: input ligand: microRNA oligo, concentration not stated.
Setting [2] is: Eterna round: R95, input ligand: FMN 200 uM.
[3] abbreviates: Eterna round: R95, input ligand: microRNA oligo, concentration not stated.
[4] abbreviates: Eterna round: R95, input ligand: none.

The values below come from the supplement of paper PMC9170038.

As for “ACUGGUCGAGGAUAUACAUGAGGAUCACCCAUGUGGUCACGUGACUUCGGUCACGAAUGUAGAAGGCGACCAGU [E3/3-A5] (Eterna round: R97, puzzle: Exclusion 3)”, the “apparent KD of MS2 coat protein” value was determined as 61.4 nM (input ligand: FMN 200 uM) and 188 nM (input ligand: none).
Turning to “ACUGUUUGAUUCCUCUUAUACAUGAGGAUCACCCAUGUUAUCGAGGAUAUGCAUUAGAGUGUUUAGCAGAAGGCGAUGUAAUUG [JR_ExcNG3_Sub033] (Eterna round: R96, puzzle: Exclusion NG 3)”, the “apparent KD of MS2 coat protein” value by setting is: (input ligand: FMN 200 uM) 112 nM; under setting [1], 8.68 nM; (input ligand: none) 17.9 nM.
On to “ACUUACUGAGGAUAUACAUAGAUAAACAUGAGGAUCACCCAUGUUCCUAUAAGUAUAUAUGUAGAAGGCAGAAGAA [JR_Ex5_Sub074] (Eterna round: R97, puzzle: Exclusion 5)”, for which the “apparent KD of MS2 coat protein” value stood at 24.2 nM (input ligand: FMN 200 uM) and 14.7 nM (input ligand: none).
The matching figures for “ACUUAUAGAGGAUAUACAGAAUAUUACAUGAGGAUCACCCAUGUUCUUCAAUGUAUAUAAGUAGAAGGCUAAGGUU [Mat - Exclusion 5 - JL Mod - D5] (Eterna round: R97, puzzle: Exclusion 5)”: 282 nM and 33.4 nM.
For “ACUUAUAGAGGAUAUACAGUUUAUUACAUGAGGAUCACCCAUGUUCUUCAAUGUCCUAAAGUAGAAGGCUAAGGAA [Mat - Exclusion 5 - Eli Mod - D12] (Eterna round: R97, puzzle: Exclusion 5)”, the “apparent KD of MS2 coat protein” value (input ligand: FMN 200 uM) was 18.8 nM and the “apparent KD of MS2 coat protein” value (input ligand: none) was found to be 16.2 nM.
The matching figures for “ACUUAUUGAGGAUAUACAGAUUAUUACAUGAGGAUCACCCAUGUUCUUCAAUGUAUAUAUGUAGAAGGCAGAGGAU [Mat - Exclusion 5 - JL Mod - D13] (Eterna round: R97, puzzle: Exclusion 5)”: 221 nM and 73.7 nM.
Take “ACUUAUUGAGGAUAUACAUAAAUUUACAUGAGGAUCACCCAUGUUCUUCUAUGUAUAUAUGUAGAAGGCAGAAGAG [Mat - Exclusion 5 - JL Mod - D33] (Eterna round: R97, puzzle: Exclusion 5)”: the “apparent KD of MS2 coat protein” value runs as follows: (input ligand: FMN 200 uM) 30.1 nM; (input ligand: none) 17.2 nM.
With “ACUUGCUUUUUGCUCGUCUUAUUUUUGUUGACGUUCUAUACAUGAGGAUCACCCAUGUUUUGUUCCUUGUGCUGGUA [JR_SV3TOV2_Sub073] (puzzle: Sensor v3, turn-off variant 2)”, the “apparent KD of MS2 coat protein” value by setting is: under setting [2], 169 nM; under setting [3], 183 nM; under setting [4], 166 nM.
The matching figures for “AGAAAGCAAGGAUAUACAAAGAAACGACCGAAAGAAAAGAAACAUGAGGAUCACCCAUGUAGAAGGUGCAAGAA [JR_Exclu2_Sub031] (puzzle: Exclusion 2)”: 19 nM, 12.8 nM and 17.7 nM.
As to “AGAAAGCAAGGAUAUACGAGGAGAAGGUGGAGAGUUAAAGGACAUGAGGAUCACCCAUGUAGAAGGUGCGAGAA [JR_Exclu2_Sub044] (puzzle: Exclusion 2)”, the “apparent KD of MS2 coat protein” value by setting is: under setting [2], 122 nM; under setting [3], 67.1 nM; under setting [4], 72 nM.
Taken in the same sequence, the figures for “AGAAAGGCCCAUGGCCGCAAGCUUUUUGCUUGUCUUACCACAUGAGGAUCACCCAUGUGACAUGGGCUCCUGAUAAU [Atveuser] (puzzle: Sensor v3, turn-off variant 2)” were 14.3 nM, 10.4 nM and 13.3 nM.
Taken in the same sequence, the figures for “AGAAGUAGAAACCGAUCCUACAUGAGGAUCACCCAUGUAGCAAGACGUGCACGCGAAGCUCGUCAGACUACCAGAAU [salish99_TOv1_r3_006] (puzzle: Sensor v3, turn-off variant 1)” were 340 nM, 193 nM and 347 nM.
The matching figures for “AGAAGUAGUAACCGAUCCUACAUGAGGAUCACCCAUGUAGCUAGACGUGCACGCGAGGCUCGUCAGACUACCAGAUG [salish99_TOv1_r3_028] (puzzle: Sensor v3, turn-off variant 1)”: 210 nM, 133 nM and 289 nM.
Regarding “AGACGAUCGUAGGAUAUCGGAAGGUCACUGGACUGAGAAGGACGAACAUGAGGAUCACCCAUGUGAUCUCUGGU [Eternabot (L2) Solution 43] (Eterna round: R97, puzzle: Exclusion 6)”, the “apparent KD of MS2 coat protein” value reads like this: (input ligand: FMN 200 uM) 779 nM; (input ligand: none) 734 nM.
For “AGAGAAUACUCAGGAUAUCUUAAUAGAAAGAAUAGAGAAGGGAGACAUGAGGAUCACCCAUGUGAAGUCUUGAGACUACAUGGU [Prohibition 29 - Jieux - Exclusion NG 1] (Eterna round: R96, puzzle: Exclusion NG 1)”, the “apparent KD of MS2 coat protein” value under setting [1] was found to be 218 nM.
With “AGAGACCGAGGAUAUCCCAGAACUCACAUGAGGAUCACCCAUGUGUAGAUUGGGUGUCACGGAGAAGGCGGAUCGC [EX5 C.21] (Eterna round: R97, puzzle: Exclusion 5)”, the “apparent KD of MS2 coat protein” value by setting is: (input ligand: FMN 200 uM) 14 nM; (input ligand: none) 13.8 nM.
“AGAGAGUCAGGAUAUCGAAGGGAGAGGAAAGGAGAGAGGGACGAGAAGGGACAUGAGGAUCACCCAUGUAGGUG [JR_Exclusion4)Sub016] (puzzle: Exclusion 4)”: the “apparent KD of MS2 coat protein” value runs as follows: under setting [2], 233 nM; under setting [3], 200 nM; under setting [4], 432 nM.
For “AGAGUGAGAGGAUAUUGGAUUCCUAACAUGAGGAUCACCCAUGUAGUACGGUGCUACUGACAAGAAGGCUCACUCU [etrenacac ex5r4 #7] (Eterna round: R97, puzzle: Exclusion 5)”, the “apparent KD of MS2 coat protein” value by setting is: (input ligand: FMN 200 uM) 54.5 nM; (input ligand: none) 76.1 nM.
Turning to “AGAGUGUGAGGAUAUAUGGUGAAGGUGAAGAGAGAGGAGGAGUAGAAGGUACAUGAGGAUCACCCAUGUUUGGA [JR_Exclu4_Sub075] (puzzle: Exclusion 4)”, the “apparent KD of MS2 coat protein” value is, setting by setting: under setting [2], 32.1 nM; under setting [3], 33 nM; under setting [4], 40.8 nM.
For the sequence “AGAUAGUGGUGAGGAUAUGAGAAUAGAAAGAAAUCAGAAGGCACACAUGAGGAUCACCCAUGUGAGUUCUUGAGAUUACAUGGU [Prohibition 42 - Jieux - Exclusion NG 1] (Eterna round: R96, puzzle: Exclusion NG 1)”, the “apparent KD of MS2 coat protein” value by setting is: (input ligand: FMN 200 uM) 22.6 nM; under setting [1], 11.3 nM; (input ligand: none) 15.4 nM.
As for “AGAUCACAUGAGGAUCACCCAUGUCAGGAUAUCAUCAUUGAAGCUGCGGCUUCAAUGAUGAGAAGGGACAUAAU [E1/2-B3] (Eterna round: R97, puzzle: Exclusion 1)”, the “apparent KD of MS2 coat protein” value (input ligand: FMN 200 uM) was determined as 105 nM and the “apparent KD of MS2 coat protein” value (input ligand: none) worked out at 412 nM.
Taken in the same sequence, the figures for “AGAUCACAUGAGGAUCACCCAUGUGAGGAUAUAGACUGAAGAGCUUCGGCUCUUCAGUCUAGAAGGCACUAUGA [EX1 #45] (Eterna round: R97, puzzle: Exclusion 1)” were 28.9 nM and 25.9 nM.
